According to the domain aggregation screens of Martell et al. (2025):

Experiment: soluble fraction after stress (log2 fold change); higher = more stays soluble; pooled small domains, quantitative proteomics
Conditions: stress: 50 degC
How it was run: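 Pooled custom libraries of small protein domains were each held under stress at 50°C. The read-out, high-throughput quantitative proteomics, tracked how much of each protein stayed soluble. This is reported as a base-two log fold change used to indicate aggregation propensity. Higher values mean more protein remains in solution.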

| Sequence | soluble fraction (log2) |
| --- | --- |
| HMLSYDDTVVIGRNLLENAMKQKNIALEQLTDEVLARLAKELQVESVEAMYAGIGSGKRPSSFIINRLEAH | -0.569 |
| HMDNREKLRQEFLENLKELQEQNDIPQQEIDRVILDYDGVAEFLEDEGALKRYGGQLVDMTAYRAGAIPS | -0.0987 |
| HMPELTASDEADLKALVGGDQGFEQMANWARSNLGEEEINRFDAVVDSNNKDAIHMAIQAMQARMNA | 0.0174 |
| HMAVQEDAGLAREDLPPEVQGLLQEREAARAAKDWGKSDALRRQLQDLGYAIKDTAQGMEIKRT | 0.425 |
| HMTGQEGLIGAHGVALTRLSNEEGEVKVQGEIWQARSDQEVAKGASIEVVHVDGLVLTVRPQH | -0.0984 |
| HMRNMVSVLDHIEGIGPKRRQLLYEHYGELEKIKEASVEEMAGLDGMNRPAAEAVYNFFLAQRNL | 0.0507 |
| HMLEVTQTDVKMYTTSGTPVYAAPDLNSAIVVYLERFVNVTVTGITDNGFYRVNLNGDYYIPGPYLISSV | -0.369 |
| HMSVFTPLTRSELETFLAPYELGRLLDFQGIAAGSENTNYFISLEKGEYVLTLVERGPVAEMPFFIELLD | -0.982 |
| HMALENTDLYAHLRLSHTASVPEIQAALSARVKHMPLQTWLLARKWLLHPRLRERYDGMWSVRFGA | -2.62 |
| HMIISMKKTATKEQIAHVRELIEGMGYKAHMSVGAERVIFGAIGDERGKERLVSLEAQPGVEKVIPIL | 0.255 |
| HMGTPSAEELAFSAQKGNAVMRIMEIREKYIENGGQISDEERNEIERLIAIYYPKASIFDYLPMMG | -0.136 |
| HMKPPTIELSYSEFIELVERGKVSKVIFSSDNYTLKGETVNGENFETVRPPFLEDNLSEILTIHKVPVSSE | -0.208 |
| HMSNFGERLRALRQDRQMTLQQASKVTGVAQSTLSKMENNQLSPTFNLMQKLAIGLGIDMPQLFAPVK | -0.108 |
| HMKSILDDVVGLGPVRKKALLSAAGGFRKLRDMDVDEVIGLGAVPEEVAREVVTVLAQYNGERDRVEGL | -0.0545 |
| HMNFDVETGLPLDSRLVVSGLIQRDGINSLKRYEGMIVYVESEAKNYQLVGGISNTDWAELS | -0.916 |
| HMGDGYTYYYDDTVLALGFTKIGNDYYIFNTFSGKMYKDATMWVNDNPYGIKGGMHYFDASGKMFV | 0.128 |
| HMFPDLTEDEQLIVDVLQRTGDLQINSLIVEANIPVNKMSEILFELEMKGVIRTLAGGVYQLL | -1.46 |
| HMSAVVAPLPGLIQNILVKVGDTVHAGQHVLTMEAMKMENEIQTNRDGIIKDIKVRIGDSVNEGDTLIIL | -0.0224 |
| HMEELPVLHLKHVVVEGESLWKLAEQYLNDGTRWQEIYMLNRENISNPDLIREGQELNIQFLQGE | -0.574 |
| HMEANPLTDREKEVLELVADGKNTKEIAQELSIKSGTVRNYISMILEKLEVKNRIEAITRSKEKGWF | 0.144 |
| HMEKKDTYTVKNGDSLWGIARTELGDGGRFREIYTLNADTIEAEAKKRGRSSSSEGHWIYPGSVLRLP | 0.0469 |
| HMAVRNTKQKQLVLSLLKNSGRPMTAGEIYRLAVQQYPNIAKSTVYRNLENLVSRGEVSQGMHQNGESFYS | -0.299 |
| HMEELIIQEELANKRLDIAISLLFPELTRAHAQKLIKEGSVLVDGKPRKASYPLTAGKRLSVTLPEPE | 0.05 |
| HMFPELSEEAKVIVDALSKENDQQLNVLIANTGMAVGTMQAKLFELEMQGVVKPLAGSVYHLM | -0.0727 |
| HMADGEWAEMQRQLTAAGLLVVGRAAQERIQRLSDISPLIEAAQRSNVVMLSERTVDEVLTLVPT | -0.18 |
| HMGVDKLTPREREVLALMAQGASNREIEGKLVLTAGAVSKHVANVFMKLGFSPEDENRRVKAVLAWLRTK | -1.05 |
| HMGTSSAEIAAELRAQIFAGELRPGEMLPSAREITGTWNVAIATASRVHALLRSEGLATPVPGVGTVVAT | 0.0105 |
| HMQSISLEEAKSAALDDAQLGIDEVEFLKTERNTDGDTSYYDIQFLVNGTIYKYQINTETGAILHVDYEA | -0.052 |

| Sequence | soluble fraction (log2) |
| --- | --- |
| HMTDDALIGKTAQVTVAIKPGSVGQITARVGDERVERLARASADAEIAAGSLVTIKSIAGDSVIVAPE | 0.144 |
| HMRYQIAEARKLRDITQAELAEKMGTTQQTIQRYETNQVNIRMDKMIEMSEILNVSLAYLLGMSSSPEL | -0.901 |
| HMKLLLSANISKLRKKYSMTQEQLAEALGVTFASVSKWERGVATPELKLIAEMADMFEVSIDALIGYEFRN | -1.39 |
| HMTKEEFLDEIKKELGFMPYEEVIKAEKYFESYFNGSEADEKVIERFGSPKYAAQNYYRTHVAN | -0.0965 |
| HMSFPFLMPNLEGLQLDQVRVILEENGLEIGQENYQPDSKFGPGTIINHQPSVDTVVQTGQKVNLQISGTD | 0.112 |
| HMPKNVEVPNVVGLSLPMAKLRLTQLGLHIVVRDSVWSETGQPNTILDQDPQPGKKIKPESTVYVKVN | -0.0939 |
| HMQNAMQKELIDAFQKAYPDLDITKIELVYGTYYEVEAMNSTTEFTYRYDQNSKTFILAEQDNADP | -0.202 |
| HMGRTGTVVVSPSLNVRTGPWGEIIGSLYNGNKVEIIGSSGDWYQISFGGKTAYVHSDYVVDGG | -0.51 |
| HMLPKLAEEYAIMEIRGKGENLTAKLINKGGDSFMVRNGTVLQTGHRIDEITQTYVRAEINGMKDYLYFA | 0.417 |
| HMKALDTVLSEIPGLGPVRIKQLLKVFGSVDAIRKASLQDLQQIEGIGPKLAQTIYEYFHQP | ≥ 0.62 |
| HMNEKAALIFNEWSDFVSKDDEANAQIKFDELITLYKKTGYTKIALLEVATKQASNGDIEGALAKYSLLID | 0.208 |
| HMTLSVRQRMSQIINKIDVSNFTDFTKLFDINEGRLGVAVTFLAILELLKDTMIDVIQNEEFAPLHIKVSS | -0.177 |
| HMAGTRVWSENGQLYVTAAVSGRANVYNVLGKLNRSLTFSAGETKSVSVPAGIYVVSLNNGKAYKVAV | -1.67 |
| HMSLSIKINHESVGLRLDQFLQEHYYKQQSRSYVQHAIKEGYILVNGQSVKNGYMLKLDDLIELEAI | -1.59 |
| HMAEQEELDAIRPDLDGQEIMDILGIKPGREVGAARNFLLELRLDEGPLGYDEAVSRLLTWWAERT | -0.13 |
| HMQQEPNFYIVDGNTNQIVDRYYAPDSNVAHQYLGQWRQQHDPQETGNYRYGRLSSETEERYRNLAA | 0.236 |
| HMEPEYIGELEKRIKKLKTHTYSSIDRLMKSISKKYKITTQVLHDDFKNKHNEIPDEWVKQF | -0.0578 |
| HMTTTSGLIKTIQTGRRKLGMDDETYRALLADVSGGKTSSKDLNAYQLKEVLRRMREAGFRS | 0.218 |
| HMKRSFGSVRQLRSGNYQARYTGPDTVRHTSPVTYTSKMDAEAWLVDERRKISSGTWTPPAR | 0.0133 |
| HMTQDFEPGGQVFSRGEWLTIIRVNKSNGAVSSVTTPNYSFLGYSGTMKVTPDRITDYKAPSAEEAAVAS | -0.281 |
| HMIDAHTTLLAKRLESKGFLALTDKSSAEEIYEEFGISKKAFKKALGALYKERLVRIGEDGVVWM | -1.43 |
| HMAYVDWYENKQPTHEEAFKKLLGRIHPGAIVLLHSTSKTNGEILDELLTKWEEMGYRFGTLDELTGN | -1.18 |
| HMTDVGLEAAKAAALKHAGLSADQVTGLTAKLDWDDGQRVYEVDFWQGSTEYEYEINADGTVRQYESEAH | 0.228 |
| HMSGFFVYPNPAKSNIIHFPNKKSFYIYDTSGRLLIEGKGKDFIDVSTLDRGVYLLKTFENDIVKIII | -1.25 |
| HMEALSAREIEILQALETGASNRELAKMLFISEATVKTHLVHIYQKLGVGTRTAAITEARERRV | -1.64 |
| HMKIYDQVVDRIKDRISKGDMPQGSALPPERQLIDELNVSRSSLREGFRILEMMGLIESIPGKGRFVRTSR | -0.235 |
| HMGEVEVPDLVGIEAIQAKTLLFNSDFLIKEFYDYDPTQPIGVVIRQAPEAGTTQTIGDSVTITINRA | -0.116 |
